Assay [1] concerns T98G cells, MDA-MB435 cells and rat embryo fibroblasts REF52. As to the kind of experiment: Attachment assay: cell spreading on fibronectin/tenascin-C with added fibronectin fragment. Format: cell-based. The method, then:
60-well microtiter plates (Nunc) were coated with 10 μg/ml ECM molecules giving rise to 1 μg/cm^2 (fibronectin and tenascin-C) and 4 μg/cm^2 (FNIII13) for 1 h at 37° C. ECM proteins were coated separately, starting with fibronectin, followed by tenascin-C, FNIII13 and BSA. The non-coated plastic surface was blocked with 1% heat-inactivated BSA in PBS giving rise to 10 μg/cm^2 protein. Similarly, mixed substrata of collagen I and laminin 1, respectively with tenascin-C were prepared and tenascin-C was detected by ELISA.
Efficient fibronectin and tenascin-C coating was determined by ELISA with an anti-fibronectin and anti-tenascin-C antibody (Fischer, D. et al (1995) J Biol Chem 270: 3378-3384), respectively and by PAGE analysis of lysed surface-bound ECM material combined with Coomassie Brilliant Blue staining. Before plating, cells were serum starved for 18 h in DMEM containing 1×ITS (insulin, transferrin, selene) supplement, trypsinised, trypsin was blocked with 100 μg/ml soybean trypsin inhibitor in PBS and, cells were resuspended in serum-free medium and counted. 200-500 cells per well were plated for the indicated time points, fixed by addition of glutaraldehyde (2% final concentration) for 15 minutes and stained with 0.1% crystalviolet in 20% methanol for 30 minutes. Cells were observed under a Nikon microscope (Nikon diaphot) and pictures were taken with a Nikon camera.
(§1) Cells were plated on substrata (FN, FN/TN, FN/TN/III13, FN/TN+III13, III13, or BSA) for 1 h and 2 h, fixed and stained with crystal violet or vinculin and TRITC—labelled phalloidin. Adherent cells were photographed and spread cells were counted. Six-fold molar excess of FNIII13 (4 μg/cm^2) was either bound to a mixed fibronectin/tenascin-C substratum prior to addition of the cells (FN/TN/III13) or, was added in solution together with the cells (FN/TN+FNIII13). Proliferation of MDA-MB435 cells and DNA replication of T98G glioblastoma cells were determined as described in Examples 4 and 5. […] T98G cells plated for 2 h on fibronectin or on the mixed substratum were stained for vinculin. […] In addition, polymerisation of actin into stress fibres was blocked by tenascin-C. No polymerised actin was found.

For the next assay, the system named is T98G and REF52 cells. As to the kind of experiment: Immunofluorescence of actin stress fibres and focal contacts. Format: cell-based. The method, then: 10^4 cells were transferred onto 4-well Cellstar plastic plates (Greiner) that were coated with ECM proteins as described. Cells were fixed with 4% paraformaldehyde, 50 mM phosphate buffer, 5 mM EDTA in PBS for 15 minutes, blocked with 3% BSA, 0.5% Tween-20 in PBS and incubated with primary and secondary antibodies in blocking solution. Slides were embedded in 10.5% Mowiol containing 2.5% DABCO as antifade agent. Expression of syndecans was determined by immunofluorescence.
as §1

Assay [2] has as its system tenascin-C. In words: In vitro binding assay (ELISA) to tenascin-C. Details: species or system chicken. The conditions noted are these: substratum-immobilised tenascin-C. The method, then: (§2) 96-well ELISA plates were coated with the indicated ECM proteins for 1 h at 37° C., blocked with 1% milkpowder, 0.05% Tween-20 in PBS. ECM proteins were added at the indicated concentrations in blocking solution for 1 h, washed with blocking solution and anti-fibronectin or anti-tenascin-C antibodies were added. Bound proteins were detected by immune reaction with a peroxidase-coupled secondary antibody specifically recognising anti-fibronectin and anti-tenascin-C antibodies, respectively, followed by colour reaction with 21 mg/ml citric acid 1-hydrate, 34 mg/ml Na2HPO4.2H2O, 0.4 mg/ml phenylenediamine, 1 μl H2O2 that was stopped with 4M sulphuric acid. The absorbance was read at […].
Bound fragments were detected with a polyclonal anti-fibronectin antibody, bound tenascin-C was detected with a monoclonal anti-tenascin-C antibody.
A general note: ELISA stands for enzyme-linked immunosorbent assay.

In the next assay the test system is syndecan-4. As to the kind of experiment: Syndecan-4 immunoprecipitation and immunoblotting for FNIII13. Format: binding. The method, then: (§3) To investigate FNIII13 as a potential ligand of syndecan-4, the interaction of syndecan-4 with FNIII13 was tested. Upon addition of FNIII13 to T98G:S4* cells, FNIII13 was detected in a syndecan-4 immunoprecipitation followed by western blotting with a GST specific antibody. This interaction was blocked upon addition of heparin. Parental and syndecan-4 overexpressing T98G:S4* cells were incubated with (100 μg/ml) FNIII13 for 1 h in the presence or absence of 0.5 mg/ml heparin. Syndecan-4-bound FNIII13 was detected by immunoprecipitation of syndecan-4 and immunoblotting for FNIII13. Recombinant FNIII13 was added to the cells in the absence or presence of (0.5 mg/ml) heparin. […] To further test whether FNIII13 binds to syndecan-4, FNIII13 was added to T98G cells and cell surface-bound FNIII13 was detected by pull down of the GST-tagged FNIII13 with glutathione Sepharose followed by western blotting with an anti-His antibody or by immunofluorescence with an anti-GST antibody. […] This interaction could be blocked by heparin showing that syndecan-4 bound FNIII13 in a glycosaminoglycan-dependent manner. In addition, cell surface-bound FNIII13 was detected by immunofluorescence with an anti-His and anti-GST antibody. […] Syndecan-2 expression was determined by incubation with chicken anti-syndecan-2, followed by rabbit anti-chicken and FITC coupled goat anti-rabbit immunostaining.
A general note: In western blotting, separated proteins are transferred to a membrane and probed.

For assay [3], the system named is tenascin-C. In words: Co-immunoprecipitation with tenascin-C. The class given is binding, chicken.
In assay [4] the test system is binding of tenascin-C to surface-immobilised intact fibronectin. In words: Competition of tenascin-C binding to surface-immobilised intact fibronectin. The method, then:
as §2
No binding of the recombinant fragment FNIII7-10, including the RGD and synergy sites, to tenascin-C was detected in an ELISA assay.

For assay [5], the system named is FAK (focal adhesion kinase) autophosphorylation at Y397. In words: FAK autophosphorylation by immunoblotting. The class given is cell-based, human. The conditions noted are these: T98G parental and T98G:S4* cells. The method, then: An experiment was performed to check for the possibility that tenascin-C might compete with syndecan-4 for binding to the HepII site in fibronectin. The experiment tested whether activation of syndecan-4 through overexpression could rescue the tenascin-C-induced spreading defect on fibronectin. Parent T98G cells, pools (T98G:S4) or a selected clone (T98G:S4*) of glioblastoma cells stably overexpressing syndecan-4 (T98G:S4) were plated on the indicated substrata for 30 minutes, 2 h, 18 h or fixed, stained with crystal violet, photographed, and counted or stained with TRITC-labelled phalloidin and vinculin. Syndecan-4 was detected by immunofluorescence with an anti-syndecan-4 antibody. There was no staining with an unspecific anti-His monoclonal antibody (control), nor with the secondary antibody alone. FAK (focal adhesion kinase) autophosphorylation at Y397 and total FAK expression levels were assessed by immunoblotting with specific antibodies. DNA replication was determined as described in Example 4 and 5. As a result, pools of T98G cells (T98G:S4) that overexpressed syndecan-4 thereby activating syndecan-4 attached and spread on the mixed fibronectin/tenascin-C substratum. The majority of the 64.7% of T98G:S4 cells that attached also spread on the fibronectin/tenascin-C substratum. […]

Another assay has as its system T98G:S4* cells. As to the kind of experiment: Cell surface binding of FNIII13 (pull down, western blotting, immunofluorescence). The class given is cell-based, human. To be noted: compared to parental T98G. The method, then: as §3
Where [6] appears, read: fragment bound (immobilised) to the mixed substratum.

“Also recorded” adds a separate entry of the source.

As for “SEQ ID NO:4: 20 amino acid fragment of FNIII13 having the sequence of SEQ ID NO:4, made by solid phase synthesis (RRARVTDATETTITISWRTK; listed as Homo sapiens)”, the “restoration of cell spreading on fibronectin/tenascin-C substratum” value in assay [1] (setting [6]) was “restored cell spreading”. Further, the “restoration of actin stress fibres and focal contacts on fibronectin/tenascin-C substratum” value in the assay with T98G and REF52 cells is given as “largely restored”.
On to “fibronectin: Fibronectin prepared from horse serum by gelatin agarose chromatography”, for which the “binding to tenascin-C in ELISA” value in the assay on tenascin-C [2] is given as “binds to substratum-immobilised tenascin-C in a dose-dependent manner”.
On to heparin [reference compound], for which the “effect on the FNIII13/syndecan-4 interaction” value in the assay with syndecan-4 (0.5 mg/ml heparin) is “blocked”.

B1: FNIII13: recombinant 13th fibronectin type III repeat of the HepII site (SEQ ID NO:1) (protein, listed as Homo sapiens)
chain: NVSPPRRARVTDATETTITISWRTKTETITGFQVDAVPANGQTPIQRTIKPDVRSYTITGLQPGTDYKIYLYTLNDNARSSPVVIDAST
As to B1, the “binding to tenascin-C in ELISA” value in the assay with tenascin-C [2] was “bound to tenascin-C in a dose-dependent manner reaching saturation”. Besides, in the assay on tenascin-C [3], the “complex formation with tenascin-C in co-immunoprecipitation” value was “form complexes”. In addition, the “competition of tenascin-C binding to immobilised intact fibronectin” value in assay [4] is “competed for by FNIII13 in a concentration-dependent fashion”. The “FAK autophosphorylation at Y397” value in assay [5] was “largely restored FAK autophosphorylation”. For the same molecule, the “attachment and spreading on the fragment alone as substratum” value in assay [1] (FNIII13 substratum without fibronectin) was “poorly attached and remained rounded”. In addition, the “restoration of cell spreading on fibronectin/tenascin-C substratum” value in assay [1] (fragment added in solution together with the cells) was “restored”; in assay [1] (setting [6]) it was “could restore the cell spreading defect”. Further, in the assay on T98G and REF52 cells, the “restoration of actin stress fibres and focal contacts on fibronectin/tenascin-C substratum” value is recorded as “largely restored”. Further, in the assay with T98G:S4* cells, the “binding to the cell surface of syndecan-4 overexpressing T98G cells” value is “dose-dependent and heparin-competable manner; also recorded: several fold increased levels”. In the assay with syndecan-4 (T98G:S4* cells, 100 μg/ml FNIII13, 1 h), the “FNIII13 bound to syndecan-4 in immunoprecipitation” value is on record as “detected”.
